For this data set, the target named is T1, ETS1 DNA-binding domain (Ets-1 ΔN280) (Mus musculus (murine), UniProt P27577 281-440, del1-280).
T1 sequence: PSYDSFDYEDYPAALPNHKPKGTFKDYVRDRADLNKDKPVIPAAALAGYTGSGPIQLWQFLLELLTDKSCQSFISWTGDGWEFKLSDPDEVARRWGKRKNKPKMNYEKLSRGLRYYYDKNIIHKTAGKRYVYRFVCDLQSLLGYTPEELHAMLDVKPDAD
Nature of the data set: EMSA; not stated in the material (as described previously, ref 25). As to conditions: protein: recombinant; tags: C-terminal His6 removed by thrombin; label: 5' 32P on strand 1 (STK19-RVS); 5' biotin on strand 2 (STK19-FWD); blunt. Background: A gel shift assay detects complexes by their altered migration in electrophoresis.

B1: STK19 D89 oligonucleotide (STK19-RVS/STK19-FWD) (dsDNA)
DNA 1: CCTGAAAATAGGGTCTTCCGGCGCAGAGCA
DNA 2: TGCTCTGCGCCGGAAGACCCTATTTTCAGG
For the molecule B1, the binding result was “binds”.

For the origin of these results see PMC10175485, “Detecting recurrent passenger mutations in melanoma by targeted UV damage sequencing”.
